Biological target: α-enolase of Enterococcus faecalis V583, surface-expressed

B1: human glu-plasminogen (Haematologic technologies) (protein)
chain: KVYLSECKTGNGKNYRGTMSKTKNGITCQKWSSTSPHRPRFSPATHPSEGLEENYCRNPDNDPQGPWCYTTDPEKRYDYCDILECEEECMHCSGENYDGKISKTMSGLECQAWDSQSPHAHGYIPSKFPNKNLKKNYCRNPDRELRPWCFTTDPNKRWELCDIPRCTTPPPSSGPTYQCLKGTGENYRGNVAVTVSGHTCQHWSAQTPHTHNRTPENFPCKNLDENYCRNPDGKRAPWCHTTNSQVRWEYCKIPSCDSSPVSTEQLAPTAPPELTPVVQDCYHGDGQSYRGTSSTTTTGKKCQSWSSMTPHRHQKTPENYPNAGLTMNYCRNPDADKGPWCFTTDPSVRWEYCNLKKCSGTEASVVAPPPVVLLPDVETPSEEDCMFGNGKGYRGKRATTVTGTPCQDWAAQEPHRHSIFTPETNPRAGLEKNYCRNPDGDVGGPWCYTTNPRKLYDYCDVPQCAAPSFDCGKPQVEPKKCPGRVVGGCVAHPHSWPWQVSLRTRFGMHFCGGTLISPEWVLTAAHCLEKSPRPSSYKVILGAHQEVNLEPHVQEIEVSRLFLEPTRKDIALLKLSSPAVITDKVIPACLPSPNYVVADRTECFITGWGETQGTFGAGLLKEAQLPVIENKVCNRYEFLNGRVQSTELCAGHLAGGTDSCQGDSGGPLVCFEKDKYILQGVTSWGLGCARPNKPGVYVRVSRFVTWIEGVMRNN
plasmin activity assay with enolase-blocking antibodies: The data is consistent with surface-expressed alpha-enolase being one of multiple PLG receptors on E. faecalis

Source: patent US20210252040
